Experimental data reported in patent US20240132603A1 (HARBOUR BIOMED US, published 2024).
Read-outs that look alike come from different tables or passages of the source.

What was measured:
human CCR8 [1] = molecular target: T1, human CCR8 (human, UniProt P51685 1-355); assay: FACS, CHO-K1-hCCR8 cells
T1 construct: whole, on cells; construct used for the overexpressing cell lines is not described; also called hCCR8
Experimental: (§1) Cells overexpressing human CCR8 were digested with pancreatin, counted and resuspended to a cell density of 1E6 cells/mL. The cell suspension was added to a 96-well V-bottom plate at 100 μL/well and centrifuged at 300 g for 5 min, and the supernatant was discarded. The anti-CCR8 antibodies provided herein was used as a primary antibody and diluted in a 5-fold gradient with an FACS buffer (DPBS containing 2% FBS) from 200 nM. The diluted primary antibody was added at 100 μL/well to resuspend the cells, and the mixture was incubated at 4° C. for 1 h. The plate was washed twice with DPBS and centrifuged at 300×g for 5 min, and the supernatant was discarded. The secondary antibody diluted in a 1:1000 ratio with an FACS buffer was added at 100 μL/well to suspend the cells, and the mixture was incubated at 4° C. for 40 min. The plate was washed twice with DPBS and centrifuged at 300×g for 5 min, and the supernatant was discarded. DPBS was added at 200 μL/well to suspend the cells, and the mixture was loaded on an FACS machine for analysis.

cynomolgus monkey CCR8 = molecular target: T2, cynomolgus monkey CCR8 (cynomolgus monkey, UniProt G7NYJ2 1-355); assay: FACS, CHO-K1-CynoCCR8 cells
T2 construct: whole, on cells; also called CynoCCR8
Experimental: as §1, with “cynomolgus monkey CCR8, CHO-K1-CynoCCR8,” for “human CCR8”

human CCR8 [2] = molecular target: T1, human CCR8; assay: FACS, CHO-K1-hCCR8 cells; remark: listed apart in the source
Experimental: as §1

human CCR8 [3] = molecular target: T1, human CCR8; assay: FACS, CHO-K1-hCCR8 cells; remark: listed apart in the source
Experimental: as §1

T1 sequence (P51685 whole entry): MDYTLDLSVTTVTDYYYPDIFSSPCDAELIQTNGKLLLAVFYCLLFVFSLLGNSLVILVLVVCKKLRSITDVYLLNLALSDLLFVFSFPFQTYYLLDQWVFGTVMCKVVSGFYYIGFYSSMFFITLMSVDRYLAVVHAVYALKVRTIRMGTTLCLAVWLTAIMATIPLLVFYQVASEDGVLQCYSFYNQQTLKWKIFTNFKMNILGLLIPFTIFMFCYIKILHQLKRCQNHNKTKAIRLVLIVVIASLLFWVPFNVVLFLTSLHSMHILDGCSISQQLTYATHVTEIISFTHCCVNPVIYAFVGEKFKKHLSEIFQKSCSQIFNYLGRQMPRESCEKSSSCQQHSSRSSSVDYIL
T2 sequence (G7NYJ2 entry or part of it): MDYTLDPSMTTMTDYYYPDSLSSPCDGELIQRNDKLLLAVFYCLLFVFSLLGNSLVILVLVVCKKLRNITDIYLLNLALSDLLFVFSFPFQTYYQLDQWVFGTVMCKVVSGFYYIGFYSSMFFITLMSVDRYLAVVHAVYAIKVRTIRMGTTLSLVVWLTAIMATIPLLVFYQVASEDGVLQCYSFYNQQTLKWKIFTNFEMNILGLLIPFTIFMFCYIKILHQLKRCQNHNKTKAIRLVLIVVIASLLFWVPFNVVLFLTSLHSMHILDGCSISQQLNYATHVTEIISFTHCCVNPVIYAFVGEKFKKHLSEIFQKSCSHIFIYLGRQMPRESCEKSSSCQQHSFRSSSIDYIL

Row | EC50 (human CCR8 [1]) [nM] | EC50 (cynomolgus monkey CCR8) [nM] | EC50 (human CCR8 [2]) [nM] | EC50 (human CCR8 [3]) [nM] | Binder
1 | – | – | 0.49 | – | PR004660 (antibody, human IgG1, kappa, V domains shown, PTM site-removed humanized variant of PR004128, IgG1 with DE mutation) VH: EVQLVESGGGLVQPGGSLRLSCAASGFTFSTYAMNWVRQAPGKGLEWVSRIRSKSNNYATYYADSVKDRFTISRDDSKSTLYLQMNSLRAEDTAVYYCVRGKENANYYAMDFWGQGTTVTVSS VL: DIVMTQSPLSLPVTPGEPASISCRSSKSLLHSNGKIYLYWFLQKPGQSPQLLIYRMSNLASGVPDRFSGSGSGTDFTLKISRVEAEDVGVYYCMQHLEYPLTFGQGTKLEIKR
2 | – | – | 0.286 | – | PR004663 (antibody, human IgG1, kappa, V domains shown, PTM site-removed humanized variant of PR004128, IgG1 with DE mutation) VH: EVQLVESGGGLVQPGGSLRLSCAASGFTFSTYAMNWVRQAPGKGLEWVSRIRSKSNNYATYYADSVKDRFTISRDDSKSTLYLQMNSLRAEDTAVYYCVRGKEQGNYYAMDFWGQGTTVTVSS VL: DIVMTQSPLSLPVTPGEPASISCRSSKSLLHSNAKIYLYWFLQKPGQSPQLLIYRMSNLASGVPDRFSGSGSGTDFTLKISRVEAEDVGVYYCMQHLEYPLTFGQGTKLEIKR
3 | – | – | 0.365 | – | PR004664 (antibody, human IgG1, kappa, V domains shown, PTM site-removed humanized variant of PR004128, IgG1 with DE mutation) VH: EVQLVESGGGLVKPGGSLRLSCAASGFTFSTYAMNWVRQAPGKGLEWVGRIRSKSNNYATYYADSVKDRFTISRDDSKSTLYLQMNSLKTEDTAVYYCVRGKENANYYAMDFWGQGTTVTVSS VL: DIVMTQSPLSLPVTLGQPASISCRSSKSLLHSNGKIYLYWFQQRPGQSPRLLIYRMSNLASGVPDRFSGSGSGTDFTLKISRVEAEDVGVYYCMQHLEYPLTFGQGTKLEIKR
4 | – | – | 0.341 | – | PR004665 (antibody, human IgG1, kappa, V domains shown, PTM site-removed humanized variant of PR004128, IgG1 with DE mutation) VH: EVQLVESGGGLVKPGGSLRLSCAASGFTFSTYAMNWVRQAPGKGLEWVGRIRSKSNNYATYYADSVKDRFTISRDDSKSTLYLQMNSLKTEDTAVYYCVRGKEQGNYYAMDFWGQGTTVTVSS VL: DIVMTQSPLSLPVTLGQPASISCRSSKSLLHSNGKIYLYWFQQRPGQSPRLLIYRMSNLASGVPDRFSGSGSGTDFTLKISRVEAEDVGVYYCMQHLEYPLTFGQGTKLEIKR
5 | – | 1.61 | – | 0.72 | PR004669 (antibody, human IgG1, kappa, humanized; same VH/VL as PR004525, other heavy chain entry) heavy: not shown light: DIVMTQSPLSLPVTLGQPASISCRSSKSLLHSNGKIYLYWFQQRPGQSPRLLIYRMSNLASGVPDRFSGSGSGTDFTLKISRVEAEDVGVYYCMQHLEYPLTFGQGTKLEIKRTVAAPSVFIFPPSDEQLKSGTASVVCLLNNFYPREAKVQWKVDNALQSGNSQESVTEQDSKDSTYSLSSTLTLSKADYEKHKVYACEVTHQGLSSPVTKSFNRGEC
6 | – | – | 0.456 | – | PR004661 (antibody, human IgG1, kappa, V domains shown, PTM site-removed humanized variant of PR004128, IgG1 with DE mutation) VH: EVQLVESGGGLVQPGGSLRLSCAASGFTFSTYAMNWVRQAPGKGLEWVSRIRSKSNNYATYYADSVKDRFTISRDDSKSTLYLQMNSLRAEDTAVYYCVRGKEQGNYYAMDFWGQGTTVTVSS VL: DIVMTQSPLSLPVTPGEPASISCRSSKSLLHSNGKIYLYWFLQKPGQSPQLLIYRMSNLASGVPDRFSGSGSGTDFTLKISRVEAEDVGVYYCMQHLEYPLTFGQGTKLEIKR
7 | – | – | 0.279 | – | PR004667 (antibody, human IgG1, kappa, V domains shown, PTM site-removed humanized variant of PR004128, IgG1 with DE mutation) VH: EVQLVESGGGLVKPGGSLRLSCAASGFTFSTYAMNWVRQAPGKGLEWVGRIRSKSNNYATYYADSVKDRFTISRDDSKSTLYLQMNSLKTEDTAVYYCVRGKEQGNYYAMDFWGQGTTVTVSS VL: DIVMTQSPLSLPVTLGQPASISCRSSKSLLHSNAKIYLYWFQQRPGQSPRLLIYRMSNLASGVPDRFSGSGSGTDFTLKISRVEAEDVGVYYCMQHLEYPLTFGQGTKLEIKR
8 | – | – | 0.681 | – | PR004662 (antibody, human IgG1, kappa, V domains shown, PTM site-removed humanized variant of PR004128, IgG1 with DE mutation) VH: EVQLVESGGGLVQPGGSLRLSCAASGFTFSTYAMNWVRQAPGKGLEWVSRIRSKSNNYATYYADSVKDRFTISRDDSKSTLYLQMNSLRAEDTAVYYCVRGKENANYYAMDFWGQGTTVTVSS VL: DIVMTQSPLSLPVTPGEPASISCRSSKSLLHSNAKIYLYWFLQKPGQSPQLLIYRMSNLASGVPDRFSGSGSGTDFTLKISRVEAEDVGVYYCMQHLEYPLTFGQGTKLEIKR
9 | 0.73 | 7.33 | – | – | PR004527 (antibody, human IgG1, kappa, V domains shown, humanized variant of PR004128, IgG1 with DE mutation) VH: EVQLVESGGGLVQPGGSLKLSCAASGFTFNTYAMNWVRQASGKGLEWVGRIRSKSNNYATYYADSVKDRFTISRDDSKSTLYLQMNSLKTEDTAVYYCVRGKENGNYYAMDFWGQGTTVTVSS VL: DIVMTQSPLSLPVTLGQPASISCRSSKSLLHSNGKIYLYWFQQRPGQSPRLLIYRMSNLASGVPDRFSGSGSGTDFTLKISRVEAEDVGVYYCMQHLEYPLTFGQGTKLEIKR

Second part, the binder before the results:

Row | Binder | EC50 (human CCR8 [1]) [nM] | EC50 (cynomolgus monkey CCR8) [nM] | EC50 (human CCR8 [2]) [nM] | EC50 (human CCR8 [3]) [nM]
10 | PR004519 (antibody, human IgG1, kappa, V domains shown, humanized variant of PR004128, IgG1 with DE mutation) VH: EVQLVESGGGLVKPGGSLRLSCAASGFTFNTYAMNWVRQAPGKGLEWVGRIRSKSNNYATYYADSVKDRFTISRDDSKSTLYLQMNSLKTEDTAVYYCVRGKENGNYYAMDFWGQGTTVTVSS VL: DIVMTQSPLSLPVTPGEPASISCRSSKSLLHSNGKIYLYWFLQKPGQSPQLLIYRMSNLASGVPDRFSGSGSGTDFTLKISRVEAEDVGVYYCMQHLEYPLTFGQGTKLEIKR | 0.67 | 4.17 | – | –
11 | PR004521 (antibody, human IgG1, kappa, V domains shown, humanized variant of PR004128, IgG1 with DE mutation) VH: EVQLVESGGGLVQPGGSLKLSCAASGFTFNTYAMNWVRQASGKGLEWVGRIRSKSNNYATYYADSVKDRFTISRDDSKSTLYLQMNSLKTEDTAVYYCVRGKENGNYYAMDFWGQGTTVTVSS VL: DIVMTQSPLSLPVTPGEPASISCRSSKSLLHSNGKIYLYWFLQKPGQSPQLLIYRMSNLASGVPDRFSGSGSGTDFTLKISRVEAEDVGVYYCMQHLEYPLTFGQGTKLEIKR | 0.37 | 6.22 | – | –
12 | PR004520 (antibody, human IgG1, kappa, humanized variant of PR004128, IgG1 with DE mutation) heavy: not shown light: DIVMTQSPLSLPVTPGEPASISCRSSKSLLHSNGKIYLYWFLQKPGQSPQLLIYRMSNLASGVPDRFSGSGSGTDFTLKISRVEAEDVGVYYCMQHLEYPLTFGQGTKLEIKRTVAAPSVFIFPPSDEQLKSGTASVVCLLNNFYPREAKVQWKVDNALQSGNSQESVTEQDSKDSTYSLSSTLTLSKADYEKHKVYACEVTHQGLSSPVTKSFNRGEC | 1.31 | 4.6 | – | –
13 | PR004522 (antibody, human IgG1, kappa, V domains shown, humanized variant of PR004128, IgG1 with DE mutation) VH: EVQLVESGGGLVKPGGSLRLSCAASGFTFNTYAMNWVRQAPGKGLEWVGRIRSKSNNYATYYADSVKDRFTISRDDSKSTLYLQMNSLKTEDTAVYYCVRGKENGNYYAMDFWGQGTTVTVSS VL: DIVMTQSPLSLPVTPGEPASISCRSSKSLLHSNGNTYLYWFLQKPGQSPQLLIYRMSNLASGVPDRFSGSGSGTDFTLKISRVEAEDVGVYYCMQHLEYPLTFGQGTKLEIKR | 1.08 | 5.87 | – | –
14 | PR004523 (antibody, human IgG1, kappa, V domains shown, humanized variant of PR004128, IgG1 with DE mutation) VH: EVQLVESGGGLVQPGGSLRLSCAASGFTFNTYAMNWVRQAPGKGLEWVSRIRSKSNNYATYYADSVKDRFTISRDDSKSTLYLQMNSLRAEDTAVYYCVRGKENGNYYAMDFWGQGTTVTVSS VL: DIVMTQSPLSLPVTPGEPASISCRSSKSLLHSNGNTYLYWFLQKPGQSPQLLIYRMSNLASGVPDRFSGSGSGTDFTLKISRVEAEDVGVYYCMQHLEYPLTFGQGTKLEIKR | 1 | 4.42 | – | –
15 | PR004524 (antibody, human IgG1, kappa, V domains shown, humanized variant of PR004128, IgG1 with DE mutation) VH: EVQLVESGGGLVQPGGSLKLSCAASGFTFNTYAMNWVRQASGKGLEWVGRIRSKSNNYATYYADSVKDRFTISRDDSKSTLYLQMNSLKTEDTAVYYCVRGKENGNYYAMDFWGQGTTVTVSS VL: DIVMTQSPLSLPVTPGEPASISCRSSKSLLHSNGNTYLYWFLQKPGQSPQLLIYRMSNLASGVPDRFSGSGSGTDFTLKISRVEAEDVGVYYCMQHLEYPLTFGQGTKLEIKR | 0.17 | 4.79 | – | –
16 | PR004526 (antibody, human IgG1, kappa, V domains shown, humanized variant of PR004128, IgG1 with DE mutation) VH: EVQLVESGGGLVQPGGSLRLSCAASGFTFNTYAMNWVRQAPGKGLEWVSRIRSKSNNYATYYADSVKDRFTISRDDSKSTLYLQMNSLRAEDTAVYYCVRGKENGNYYAMDFWGQGTTVTVSS VL: DIVMTQSPLSLPVTLGQPASISCRSSKSLLHSNGKIYLYWFQQRPGQSPRLLIYRMSNLASGVPDRFSGSGSGTDFTLKISRVEAEDVGVYYCMQHLEYPLTFGQGTKLEIKR | 1.03 | 4.01 | – | –
17 | PR004525 (antibody, human IgG1, kappa, humanized variant of PR004128, IgG1 with DE mutation) heavy: not shown light: DIVMTQSPLSLPVTLGQPASISCRSSKSLLHSNGKIYLYWFQQRPGQSPRLLIYRMSNLASGVPDRFSGSGSGTDFTLKISRVEAEDVGVYYCMQHLEYPLTFGQGTKLEIKRTVAAPSVFIFPPSDEQLKSGTASVVCLLNNFYPREAKVQWKVDNALQSGNSQESVTEQDSKDSTYSLSSTLTLSKADYEKHKVYACEVTHQGLSSPVTKSFNRGEC | 0.85 | 6.21 | – | –
